Assay results as given in article PMC10957665, “The C-terminal selenenylsulfide of extracellular/non-reduced thioredoxin reductase endows this protein with selectivity to small-molecule electrophilic reagents under oxidative conditions” (Frontiers in Molecular Biosciences, 2024).
Numbering of substitutions follows the chain as printed.

B1: Cys73Ala mutant of hTrx1 (natural protein, human, UniProt P10599 1-105, looked up)
chain: MVKQIESKTAFQEALDAAGDKLVVVDFSATWCGPCKMIKPFFHSLSEKYSNVIFLEVDVDDCQDVASECEVKAMPTFQFFKKGQKVGEFSGANKEKLEATINELV
notes: Human cytosolic thioredoxin (hTrx1) with Cys73 replaced by Ala; also called hTrx1 mutant in which Cys73 was substituted by Ala
B2: human cytosolic thioredoxin (hTrx1) (natural protein, UniProt P10599 1-105, looked up)
chain: B1 chain with A73C
notes: Human cytosolic thioredoxin (hTrx1); freshly DTT-treated, free thiol on surface Cys73; also called human cytosolic Trx; source: purified according to a previously described method (Zhai and Zhong, 2010); incubated with DTT and dialysed before use

How the values were obtained:
[1] = molecular target: the molecule itself; experiment: cross-linking; diamide-induced covalent (disulfide/selenenylsulfide) complex: TrxR1 or a TrxR1 mutant with a 2-fold concentration of hTrx1, or one protein alone, 10 mM diamide, 30 min at room temperature; non-reducing SDS-PAGE, Coomassie stain
[2] = molecular target: the molecule itself; experiment: cross-linking; H2O2 as thiol oxidant in place of diamide; unpublished (Zhong's observation)

| Protein | stoichiometry N [1] | stoichiometry N [2] |
| --- | --- | --- |
| B1 | 2 | – |
| B2 | – | 2 |
